Data as given in the supplement of paper PMC11246515.
± gives the standard deviation of the averaged measurements.

Assay: total protein half-life in vivo (active degradation + dilution); higher = more stable protein
[1] = E. coli NCM3722 delta-clpP delta-lon delta-hslV, growth: N-lim chemostat, doubling time 6 h
[2] = E. coli NCM3722 delta-clpP, growth: N-lim chemostat, doubling time 6 h
[3] = E. coli NCM3722 delta-hslV, growth: N-lim chemostat, doubling time 6 h
[4] = E. coli NCM3722 delta-lon, growth: N-lim chemostat, doubling time 6 h
[5] = E. coli NCM3722 delta-smpB, growth: N-lim chemostat, doubling time 6 h
[6] = wild type E. coli NCM3722, growth: C-lim chemostat, doubling time 3 h
[7] = wild type E. coli NCM3722, growth: C-lim chemostat, doubling time 6 h
[8] = wild type E. coli NCM3722, growth: C-lim chemostat, doubling time 12 h
[9] = wild type E. coli NCM3722, growth: N-lim chemostat, doubling time 6 h
[10] = wild type E. coli NCM3722, growth: N-lim chemostat, doubling time 12 h
[11] = wild type E. coli NCM3722, growth: P-lim chemostat, doubling time 6 h
[12] = wild type E. coli NCM3722, growth: P-lim chemostat, doubling time 12 h

Row | Sequence | total protein half-life in vivo [1] | total protein half-life in vivo [2] | total protein half-life in vivo [3] | total protein half-life in vivo [4] | total protein half-life in vivo [5] | total protein half-life in vivo [6] | total protein half-life in vivo [7] | total protein half-life in vivo [8] | total protein half-life in vivo [9] | total protein half-life in vivo [10] | total protein half-life in vivo [11] | total protein half-life in vivo [12]
1 | MTTQRSPGLFRRLAHGSLVKQILVGLVLGILLAWISKPAAEAVGLLGTLFVGALKAVAPILVLMLVMASIANHQHGQKTNIRPILFLYLLGTFSAALAAVVFSFAFPSTLHLSSSAGDISPPSGIVEVMRGLVMSMVSNPIDALLKGNYIGILVWAIGLGFALRHGNETTKNLVNDMSNAVTFMVKLVIRFAPIGIFGLVSSTLATTGFSTLWGYAQLLVVLVGCMLLVALVVNPLLVWWKIRRNPFPLVLLCLRESGVYAFFTRSSAANIPVNMALCEKLNLDRDTYSVSIPLGATINMAGAAITITVLTLAAVNTLGIPVDLPTALLLSVVASLCACGASGVAGGSLLLIPLACNMFGISNDIAMQVVAVGFIIGVLQDSCETALNSSTDVLFTAAACQAEDDRLANSALRN [P0AGE4] | 5.56 ± 0.69 h | 5.78 h | 6.04 h | 5.28 h | 6.21 ± 0.49 h | 3.36 h | 5.87 ± 0.55 h | 12.3 ± 0.23 h | 5.94 ± 0.44 h | 11.6 h | 5.5355 ± 0.00083 h | 10.7 ± 0.53 h
2 | MTTQTVSGRRYFTKAWLMEQKSLIALLVLIAIVSTLSPNFFTINNLFNILQQTSVNAIMAVGMTLVILTSGIDLSVGSLLALTGAVAASIVGIEVNALVAVAAALALGAAIGAVTGVIVAKGRVQAFIATLVMMLLLRGVTMVYTNGSPVNTGFTENADLFGWFGIGRPLGVPTPVWIMGIVFLAAWYMLHHTRLGRYIYALGGNEAATRLSGINVNKIKIIVYSLCGLLASLAGIIEVARLSSAQPTAGTGYELDAIAAVVLGGTSLAGGKGRIVGTLIGALILGFLNNGLNLLGVSSYYQMIVKAVVILLAVLVDNKKQ [P0AGI1] | 6.66 ± 0.66 h | 6.38 ± 1.3 h | 5.86 ± 0.5 h | 5.86 ± 0.38 h | 6.072 ± 0.021 h | 2.957 ± 0.015 h | 5.74 ± 0.19 h | 12.5 ± 2.2 h | 6.28 ± 0.51 h | 10.5 ± 3.5 h | 5.48 ± 0.19 h | 13.2 ± 1.3 h
3 | MTTQYGFFIDSSRCTGCKTCELACKDFKDLGPEVSFRRIYEYAGGDWQEDNGVWHQNVFAYYLSISCNHCDDPACTKVCPSGAMHKREDGFVVVDEDVCIGCRYCHMACPYGAPQYNAEKGHMTKCDGCYSRVAEGKQPICVESCPLRALEFGPIEELRQKHGTLAAVAPLPRAHFTKPNIVIKPNANSRPTGDTTGYLANPEEV [P0AAJ1] | 4.03 h |  |  |  |  |  |  |  |  |  |  | 
4 | MTTQYGFFIDSSRCTGCKTCELACKDYKDLTPEVSFRRIYEYAGGDWQEDNGVWHQNVFAYYLSISCNHCEDPACTKVCPSGAMHKREDGFVVVDEDVCIGCRYCHMACPYGAPQYNETKGHMTKCDGCYDRVAEGKKPICVESCPLRALDFGPIDELRKKHGDLAAVAPLPRAHFTKPNIVIKPNANSRPTGDTTGYLANPKEV | 5.26 h |  |  |  |  |  | 6.7 h |  |  |  |  | 
5 | MTTRLTRWLTTLDNFEAKMAQLPAVRRYGRLTRATGLVLEATGLQLPLGATCVIERQNGSETHEVESEVVGFNGQRLFLMPLEEVEGVLPGARVYAKNISAEGLQSGKQLPLGPALLGRVLDGSGKPLDGLPSPDTTETGALITPPFNPLQRTPIEHVLDTGVRPINALLTVGRGQRMGLFAGSGVGKSVLLGMMARYTRADVIVVGLIGERGREVKDFIENILGAEGRARSVVIAAPADVSPLLRMQGAAYATRIAEDFRDRGQHVLLIMDSLTRYAMAQREIALAIGEPPATKGYPPSVFAKLPALVERAGNGISGGGSITAFYTVLTEGDDQQDPIADSARAILDGHIVLSRRLAEAGHYPAIDIEASISRAMTALISEQHYARVRTFKQLLSSFQRNRDLVSVGAYAKGSDPMLDKAIALWPQLEGYLQQGIFERADWEASLQGLERIFPTVS | 3.91 h |  |  |  |  | 2.04 ± 0.092 h | 3.72 h | 4.73 ± 0.2 h |  |  |  | 
6 | MTTRQHSSFAIVFILGLLAMLMPLSIDMYLPALPVISAQFGVPAGSTQMTLSTYILGFALGQLIYGPMADSFGRKPVVLGGTLVFAAAAVACALANTIDQLIVMRFFHGLAAAAASVVINALMRDIYPKEEFSRMMSFVMLVTTIAPLMAPIVGGWVLVWLSWHYIFWILALAAILASAMIFFLIKETLPPERRQPFHIRTTIGNFAALFRHKRVLSYMLASGFSFAGMFSFLSAGPFVYIEINHVAPENFGYYFALNIVFLFVMTIFNSRFVRRIGALNMFRSGLWIQFIMAAWMVISALLGLGFWSLVVGVAAFVGCVSMVSSNAMAVILDEFPHMAGTASSLAGTFRFGIGAIVGALLSLATFNSAWPMIWSIAFCATSSILFCLYASRPKKR | 7.89 h |  |  |  |  |  |  |  |  |  | 6.0641 ± 0.0035 h | 11.8 h
